Reference: patent US20040005643A1

Key:
human tenascin-C (human) [1] = biological target: human tenascin-C (human) (UniProt P24821); experiment: ELISA, biotinylated antibody, 7-10 moles biotin/antibody
human tenascin-C (human) [2] = biological target: human tenascin-C (human) (UniProt P24821); experiment: ELISA, biotinylated antibody, 3.5-5 moles biotin/antibody
human tenascin-C (human) [3] = biological target: human tenascin-C (human) (UniProt P24821); experiment: ELISA, biotinylated antibody, 15-20 moles biotin/antibody
human tenascin-C (human) [4] = biological target: human tenascin-C (human) (UniProt P24821); experiment: immunoreactivity of the batch used for biodistribution, 7-10 biotins/mole
human tenascin-C (human) [5] = biological target: human tenascin-C (human) (UniProt P24821); experiment: ELISA, biotinylated antibody, 2-3 moles biotin/antibody
human tenascin-C (human) [6] = biological target: human tenascin-C (human) (UniProt P24821); experiment: BIAcore

human tenascin-C (human), sequence (P24821 23-2201 limits assumed): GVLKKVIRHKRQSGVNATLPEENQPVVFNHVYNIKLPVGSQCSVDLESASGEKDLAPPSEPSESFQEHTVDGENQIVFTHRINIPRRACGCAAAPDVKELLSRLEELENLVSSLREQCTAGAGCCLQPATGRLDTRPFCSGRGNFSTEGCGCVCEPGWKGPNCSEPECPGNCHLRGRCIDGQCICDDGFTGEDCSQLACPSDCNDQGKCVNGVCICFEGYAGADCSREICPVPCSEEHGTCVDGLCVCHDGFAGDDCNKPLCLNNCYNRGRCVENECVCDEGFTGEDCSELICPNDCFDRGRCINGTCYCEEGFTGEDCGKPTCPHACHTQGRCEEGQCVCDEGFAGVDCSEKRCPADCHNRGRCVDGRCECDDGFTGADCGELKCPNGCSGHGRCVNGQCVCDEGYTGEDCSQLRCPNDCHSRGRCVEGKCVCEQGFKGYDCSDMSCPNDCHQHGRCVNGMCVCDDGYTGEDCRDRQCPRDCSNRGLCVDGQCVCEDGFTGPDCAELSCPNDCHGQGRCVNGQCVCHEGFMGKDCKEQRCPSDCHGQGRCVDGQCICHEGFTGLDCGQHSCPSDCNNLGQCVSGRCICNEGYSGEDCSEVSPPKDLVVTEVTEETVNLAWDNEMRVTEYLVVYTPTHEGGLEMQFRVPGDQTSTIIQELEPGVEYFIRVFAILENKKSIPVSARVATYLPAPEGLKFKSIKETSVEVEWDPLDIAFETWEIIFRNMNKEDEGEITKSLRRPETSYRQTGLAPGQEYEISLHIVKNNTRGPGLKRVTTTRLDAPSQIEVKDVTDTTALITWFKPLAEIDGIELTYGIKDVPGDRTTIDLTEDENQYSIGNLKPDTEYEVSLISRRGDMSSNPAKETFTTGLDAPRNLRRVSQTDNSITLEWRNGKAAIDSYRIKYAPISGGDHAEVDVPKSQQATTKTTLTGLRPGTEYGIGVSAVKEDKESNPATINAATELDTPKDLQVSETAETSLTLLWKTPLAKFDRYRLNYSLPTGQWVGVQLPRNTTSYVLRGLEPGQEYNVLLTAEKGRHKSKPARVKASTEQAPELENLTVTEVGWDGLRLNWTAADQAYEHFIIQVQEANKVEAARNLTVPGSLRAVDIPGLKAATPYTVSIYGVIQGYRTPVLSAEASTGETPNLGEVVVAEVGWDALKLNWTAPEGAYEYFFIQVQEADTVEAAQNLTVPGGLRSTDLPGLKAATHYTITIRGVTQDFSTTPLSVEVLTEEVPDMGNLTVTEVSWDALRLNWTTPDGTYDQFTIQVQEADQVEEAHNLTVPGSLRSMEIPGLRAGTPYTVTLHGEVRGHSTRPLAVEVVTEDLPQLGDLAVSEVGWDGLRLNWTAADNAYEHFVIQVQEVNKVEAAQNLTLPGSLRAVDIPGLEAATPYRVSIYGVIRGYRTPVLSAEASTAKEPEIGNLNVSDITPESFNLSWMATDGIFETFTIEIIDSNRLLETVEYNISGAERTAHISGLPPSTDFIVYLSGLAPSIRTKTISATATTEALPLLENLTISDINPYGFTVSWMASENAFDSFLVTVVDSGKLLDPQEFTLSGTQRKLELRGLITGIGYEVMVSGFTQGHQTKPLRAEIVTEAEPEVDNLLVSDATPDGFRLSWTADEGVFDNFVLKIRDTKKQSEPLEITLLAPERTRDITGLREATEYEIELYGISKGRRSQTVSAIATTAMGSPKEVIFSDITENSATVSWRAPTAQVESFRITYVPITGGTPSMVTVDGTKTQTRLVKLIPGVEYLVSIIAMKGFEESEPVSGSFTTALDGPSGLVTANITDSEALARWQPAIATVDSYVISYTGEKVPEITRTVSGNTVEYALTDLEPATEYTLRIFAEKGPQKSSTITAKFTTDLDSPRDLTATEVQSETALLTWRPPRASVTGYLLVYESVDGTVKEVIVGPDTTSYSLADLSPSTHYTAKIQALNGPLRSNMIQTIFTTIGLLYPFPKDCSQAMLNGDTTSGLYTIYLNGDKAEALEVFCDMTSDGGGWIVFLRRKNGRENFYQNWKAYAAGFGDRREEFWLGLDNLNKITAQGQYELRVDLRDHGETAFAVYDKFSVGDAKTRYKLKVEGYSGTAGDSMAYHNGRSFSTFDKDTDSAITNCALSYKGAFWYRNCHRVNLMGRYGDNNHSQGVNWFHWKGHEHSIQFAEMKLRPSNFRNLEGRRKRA

Substance | % of Immunoreactivity (human tenascin-C (human) [1]) [%] | % of Immunoreactivity (human tenascin-C (human) [2]) [%] | % of Immunoreactivity (human tenascin-C (human) [3]) [%] | immunoreactivity (human tenascin-C (human) [4]) [%] | % of Immunoreactivity (human tenascin-C (human) [5]) [%] | Kd (human tenascin-C (human) [6]) [nM]
biotinylated BC4 (antibody) | 67.2 | 74.4 | 12.6 | 80 | 82.4 | –
BC4 anti-human tenascin monoclonal antibody | – | – | – | – | – | 4.9
